This note sets out measurements from publication doi:10.1101/2023.05.24.542197.

In the assay the target is Dicer (endogenous human Dicer) (human (endogenous in HeLa and HEK 293T)) (UniProt Q9UPY3). Kind of assay: proximity ligation.
Chain of UniProt Q9UPY3 (Q9UPY3 whole entry): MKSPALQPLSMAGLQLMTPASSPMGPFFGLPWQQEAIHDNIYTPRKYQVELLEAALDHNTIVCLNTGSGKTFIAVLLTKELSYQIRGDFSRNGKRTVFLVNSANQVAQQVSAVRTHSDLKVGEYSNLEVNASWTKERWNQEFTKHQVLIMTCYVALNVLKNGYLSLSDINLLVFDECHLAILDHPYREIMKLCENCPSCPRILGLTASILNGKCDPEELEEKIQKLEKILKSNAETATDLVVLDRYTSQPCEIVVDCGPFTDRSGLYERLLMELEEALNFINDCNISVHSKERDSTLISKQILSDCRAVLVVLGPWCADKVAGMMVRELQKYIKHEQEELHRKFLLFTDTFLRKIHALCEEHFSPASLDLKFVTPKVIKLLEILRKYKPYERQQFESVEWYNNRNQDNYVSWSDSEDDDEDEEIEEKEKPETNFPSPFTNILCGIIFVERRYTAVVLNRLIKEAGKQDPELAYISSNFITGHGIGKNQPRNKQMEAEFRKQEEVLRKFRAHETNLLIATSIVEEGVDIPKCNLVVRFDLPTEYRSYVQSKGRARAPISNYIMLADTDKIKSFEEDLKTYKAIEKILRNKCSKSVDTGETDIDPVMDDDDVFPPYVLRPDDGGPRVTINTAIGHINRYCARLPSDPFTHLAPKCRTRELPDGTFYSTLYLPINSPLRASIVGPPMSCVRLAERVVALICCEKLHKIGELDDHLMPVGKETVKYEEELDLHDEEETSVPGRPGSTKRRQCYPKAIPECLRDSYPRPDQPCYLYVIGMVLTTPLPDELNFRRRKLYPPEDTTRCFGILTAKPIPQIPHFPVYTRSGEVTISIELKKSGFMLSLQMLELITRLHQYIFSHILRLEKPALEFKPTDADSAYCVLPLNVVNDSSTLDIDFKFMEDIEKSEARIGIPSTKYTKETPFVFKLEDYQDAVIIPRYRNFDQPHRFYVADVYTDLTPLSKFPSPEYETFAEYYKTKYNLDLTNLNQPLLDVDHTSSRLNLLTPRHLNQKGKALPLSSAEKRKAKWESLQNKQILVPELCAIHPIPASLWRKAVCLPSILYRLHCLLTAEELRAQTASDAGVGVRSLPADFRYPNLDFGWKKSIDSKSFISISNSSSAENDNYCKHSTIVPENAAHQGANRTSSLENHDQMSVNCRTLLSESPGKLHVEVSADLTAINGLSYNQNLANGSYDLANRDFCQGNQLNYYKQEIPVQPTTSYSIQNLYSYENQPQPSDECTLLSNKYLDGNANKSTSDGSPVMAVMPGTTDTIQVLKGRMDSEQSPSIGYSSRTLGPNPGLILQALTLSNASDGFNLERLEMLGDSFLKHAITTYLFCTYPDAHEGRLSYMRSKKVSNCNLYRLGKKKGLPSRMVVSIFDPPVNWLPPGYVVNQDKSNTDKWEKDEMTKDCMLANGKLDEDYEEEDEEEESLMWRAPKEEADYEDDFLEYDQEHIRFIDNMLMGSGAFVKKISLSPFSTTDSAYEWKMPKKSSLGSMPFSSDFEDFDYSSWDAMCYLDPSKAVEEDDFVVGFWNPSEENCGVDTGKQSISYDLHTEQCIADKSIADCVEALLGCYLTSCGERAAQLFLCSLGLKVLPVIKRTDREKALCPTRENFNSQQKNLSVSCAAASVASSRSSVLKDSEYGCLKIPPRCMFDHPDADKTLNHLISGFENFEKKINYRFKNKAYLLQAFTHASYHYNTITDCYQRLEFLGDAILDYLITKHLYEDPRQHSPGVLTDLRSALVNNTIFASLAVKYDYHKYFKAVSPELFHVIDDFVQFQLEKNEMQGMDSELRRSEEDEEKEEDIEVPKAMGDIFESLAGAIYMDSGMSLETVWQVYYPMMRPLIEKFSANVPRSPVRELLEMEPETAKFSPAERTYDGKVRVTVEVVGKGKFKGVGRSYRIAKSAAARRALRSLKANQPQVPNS

“Flag-Gag (pCI-Neo-Flag-Gag) (natural protein)”: the PLA proximity events in a cell (highest) (proximity events per cell) was under 36.
